According to patent US20240342244A1, “Isthmin Protein Therapeutics for the Treatment of Non-Alcoholic Fatty Liver Disease” (The Board of Trustees of the Leland Stanford Junior …, priority 2021, published 2024):

Key:
ISM1-KO mice = test: In vivo 2-deoxy-3H-glucose uptake in ISM1-KO mice treated with ISM1 protein; parameters: species or system mouse; details: 5 mg/kg ISM1 protein for two days; male ISM1-KO mice
Procedure: In vivo glucose uptake. Mice were fasted for 1 h and injected I.P. with 3H-2-deoxyglucose (3H-2-DOG) at 100 uCi/kg with or without 0.75 U/kg insulin in a total volume of 120 ul per mouse. After 30 min, mice were euthanized. Blood was collected by cardiac puncture and subsequently centrifuged to collect serum. Wet tissue weights were recorded then homogenized in 1% SDS for liquid scintillation counting. Data are expressed as CPM/mg wet weight (fold change over control).

pS6^S235/S236 = test: Acute and long-term signaling in AML12 hepatocytes (western blot); type: cell-based, mouse
Procedure: (§1) Western blots and molecular analyses. For western blotting, homogenized tissues or whole-cell lysates, samples were lysed in RIPA buffer containing protease inhibitor cocktail (Roche) and phosphatase inhibitor cocktail (Roche). Cell lysates were centrifuged at 14,000×g for 15 min and supernatants were prepared in 4×LDS Sample Buffer (Invitrogen) and separated by SDS-PAGE and transferred to Immobilon 0.45 μm membranes (Millipore). For Western blotting of plasma samples, 1 μl of plasma was prepared in 2× sample buffer (Invitrogen) with reducing agent, boiled, and analyzed using Western blot against indicated antibody. Protein kinase array (R&D systems ARY003B) was performed according to the manufacturers' description. All antibodies used in this paper are described in STAR methods.

pAKTS473 = test: In vivo pAKT S473 signaling in tissues after I.V. injection in DIO mice; parameters: species or system mouse
Procedure: as §1

[1] = Observation of hypoglycemia in overexpression or pharmacological administration studies; type: in vivo, mouse; details: overexpression or pharmacological administration of ISM1

B1: ISM1: recombinant mouse ISM1 protein with a C-terminal myc-his tag generated in mammalian HEK 293 Expi cells (protein, UniProt A2ATD1 30-454, looked up)
Isthmin-1: SDRQDAAAGNNNLNLESDSTSETSFPLSKEAPEEHQVVHQPFPRQRFPPETGHPSLQRDGPRSFLLDLPNFPDLSKADINGQNPNIQVTIEVVDGPDSEAEKDQHPENKPSWSLPAPDWRAWWQRSLSLARTNSGDQDDKYDSTSDDSNFLSVPRGWDRPAPGHRTFETKEQPEYDSTDGEGDWSLWSVCSVTCGNGNQKRTRSCGYACIATESRTCDRPNCPGIEDTFRTAATEVSLLAGSEEFNATKLFEVDMDSCERWMSCKSEFLKKYMHKVINDLPSCPCSYPTEVAYSTADIFDRIKRKDFRWKDASGPKEKLEIYKPTARYCIRSMLSLESTTLAAQHCCYGDNMQLITRGKGAGTPNLISTEFSAELHYKVDVLPWIICKGDWSRYNEARPPNNGQKCTESPSDEDYIKQFQEAREY
modifications: C-terminal myc-His tag
notes: recombinant mouse ISM1 protein with a C-terminal myc-his tag generated in mammalian HEK 293 Expi cells
glucose uptake in BAT (ISM1-KO mice): increase glucose uptake
glucose uptake in iWAT (ISM1-KO mice): trending increase
glucose uptake in liver (ISM1-KO mice): no hepatic glucose uptake induction
glucose uptake in skeletal muscle (ISM1-KO mice): increase glucose uptake
pS6^S235/S236 after long-term treatment (pS6^S235/S236; 24 h treatment): induces hyperactivation of pS6^S235/S236
acute signaling added to insulin (pS6^S235/S236; insulin 1 nM up to 100 nM with 25 nM or 50 nM ISM1, 5 min): do not result in any additional signaling changes
pAKTS473 signaling in BAT and liver (pAKTS473; 10 mg/kg I.V., 10 min time point): transient inductions
pAKTS473 signaling in iWAT and skeletal muscle (pAKTS473; 10 mg/kg I.V., DIO mice): activates pAKTS473 signaling at 30 and 60 min
dose inducing the highest pAKTS473 response (pAKTS473; doses ranging from 0.1 mg/kg to 10 mg/kg, iWAT): 5 mg/kg
hypoglycemia [1]: do not observe hypoglycemia
